Experimental data from paper PMC5458386, “Crystal structures of human Fabs targeting the Bexsero meningococcal vaccine antigen NHBA” (Acta Crystallographica. Section F, Structural Biology …, 2017).

Molecular target: T1, Neisserial heparin-binding antigen (NHBA) peptide 20 (Neisseria meningitidis strain 2996, UniProt Q9JPP1 18-427)
T1 construct: NHBA variant p20 (short variant) of N. meningitidis strain 2996, UniProt Q9JPP1; also called NHBA p20; NHBAp20
T1 sequence: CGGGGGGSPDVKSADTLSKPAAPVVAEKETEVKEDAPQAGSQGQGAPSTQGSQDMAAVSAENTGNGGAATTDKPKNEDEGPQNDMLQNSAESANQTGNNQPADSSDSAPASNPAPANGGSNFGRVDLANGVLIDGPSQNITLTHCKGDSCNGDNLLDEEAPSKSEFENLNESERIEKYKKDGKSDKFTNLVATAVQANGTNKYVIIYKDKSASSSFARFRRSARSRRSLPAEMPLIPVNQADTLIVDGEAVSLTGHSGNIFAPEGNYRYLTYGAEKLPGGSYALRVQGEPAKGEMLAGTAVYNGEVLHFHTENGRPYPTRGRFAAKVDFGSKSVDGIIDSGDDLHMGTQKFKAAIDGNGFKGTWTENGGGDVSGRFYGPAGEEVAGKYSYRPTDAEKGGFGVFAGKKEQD
Experiment: SPR; Biacore T200, 25 °C; Fab (800-1100 RU) captured by anti-Fab mAbs (Human Fab Capture Kit) on a CM5 chip; NHBA injected, single-cycle kinetics, five injections 6.25-100 nM, 30 µl/min; HBS-EP (10 mM HEPES, 150 mM NaCl, 3 mM EDTA, 0.05% P20, pH 7.4); 1:1 Langmuir model with mass-transfer term; duplicate
Settings: both partners purified

B1: Fab 12E1 (Fab, V domains shown)
VH: QVQLVQSGAEVKKPGASVKVSCKASGYIFTSHPIHWVRQAPGQRPEWMGWINAGNGNTKYSQKFQDRVNLTRDTSASTVFMELINLRFEDTAIYYCIRETKFDPWGQGTLVTVSS
VL: EIVLTQSPLSLPVTLGQPASISCRSSQDLVYRDGITYLNWFQQRPGQSPRRLIYKVSNRDSGVPDRFSGSGSGTDFTLRISRVEAEDIGVYYCMQGTHWPITFGQGTRLEIKR
notes: heavy chain of Fab 12E1 (human VH, human IgG1 CH1) as left after TEV cleavage; light chain of Fab 12E1; Fab cloned from a human monoclonal antibody of a Bexsero vaccinee; also called anti-NHBA human Fab 12E1; source: Expi293 cells, transient transfection, purified from supernatant (StrepTrap HP, TEV cleavage, Superdex 200); not shown: double Strep-tag II, C-terminal, cleaved
B1 showed a Kd of 6.2 nM, a koff of 0.0003 s⁻¹ and a kon of 49000 M⁻¹ s⁻¹.
